Tests used:
[1] = target: SARS-CoV-2 spike protein bearing furin mutation and truncation in retention sequence, on pseudoviral particles (SARS-CoV-2, UniProt P0DTC2 14-1255); experiment: cell-based or functional assay
[2] = target: SARS-CoV-2 spike protein bearing furin mutation and truncation in retention sequence (on pseudoviral envelope) (SARS-CoV-2, UniProt P0DTC2 14-1273); experiment: cell-based or functional assay

B1: YANG-1106 (antibody, V domains shown)
VH: EVQLVESGGGLIQPGGSLRLSCAASEFIVSRNYMSWVRQAPGKGLEWVSVIYSGGSTFYADSVRGRFTISRDNSKNTLYLQMNSLRAEDTAVYYCARDYGDQYFDYWGQGTLVTVSS
VL: EMVMTQSPATLSVSPGEKATLSCRASQTVSTNLAWYQQKPGQSPRLLIYGASTRATGIPARFSGSGSGTEFTLTISSLQSEDFAIYYCQQYVDWPRTFGQGTTVEIK
PV neutralization % (Ab 1 ug/mL) [1]: 99.5%

B2: YANG-1103 (antibody, V domains shown)
VH: EVQMVESGGGLIQPGGSLRLSCAASGLTVSSNYMSWVRQAPGKGLEWVSVIYSGGSTFYADSVKDRFTISRDNSKNTLYLQMNSLRAEDTAVYYCARENWNYVFDCWGQGTLVTVSS
VL: DIQLTQSPSFLSASVGDRVTITCWASQGISSYLAWYQQKPGKAPKLLIYAASTLQSGVPSRFSGSGSGTEFTLTISSLQPEDFATYYCQQLNSHPIIFGQGTRLEIK
PV neutralisation IC50 [1]: 0.28 nM | PV neutralization % (Ab 1 ug/mL) [1]: 100%

B3: YANG-1105 (antibody, V domains shown)
VH: EVQVVESGGGLIQPGGSLRLSCAASGITVSRNYMNWVRQAPGKGLEWVSVIYSGGSTFYADSVKGRFTISRDNSKNTLYLQMNSLRADDTGVYYCAREGYGMDVWGQGTTVTVSS
VL: DIQLTQSPSFLSASVGDRVTITCWASQGISSYLAWYQQKPGKAPKLLIYSASTLQSGVPSRFSGSGSGTEFTLTINSLQPEDFATYYCQQLNSHPCSFGQGTKLEIK
PV neutralization % (Ab 1 ug/mL) [1]: 97.2%

B4: YANG-1107 (antibody, V domains shown)
VH: EVQMVESGGGLIQSGGSLRLSCAASGLSVSSNYMSWVRQAPGKGLEWVAVIYSGGSIFYADSVKDRFTISRDNSKNTLYLQMNSLRAEDTAVYYCARENWNYVFDCWGQGTLVTVSS
VL: DIQLTQSPSFLSASVGDRVTITCWASQGISTYLAWYQQKPGKAPKLLIYAASTLQSGVPSRFSGSGSGTEFTLTISSLQPEDFATYYCQQLSSHPIIFGQGTRLEIK
PV neutralization % (Ab 1 ug/mL) [1]: 99.2%

B5: YANG-2203 (antibody, V domains shown)
VH: QVQLVQSGAEVKQPGASVKVSCRASGYALTSFYVHWVRQAPGQGLEWMGIIKPSGGDTIYAQNLQGRVTMTRDTSTNTFYVELSSLRSEDTALYYCAISGNTRAFEIWGQGTMVTVSL
VL: QSVLTQPPSVSAAPGQKVTISCSGSSSNIGNNFVSWYQQLPGMVPKLLIYANNKRPSGIPDRFSGSRSGTSATLGITGLQTGDEADYYCGTWDSSRSAVLFGGGTKMTVL
PV neutralisation IC50 [2]: 5.45 nM | PV neutralization % (Ab 1 ug/mL) [2]: 35.7%

B6: YANG-2204 (antibody, V domains shown)
VH: QMQLVQSGAEVKKPGASVKFSCKTSGYTFTNYYMVWVRQAPGQGLEWMGIIKPSGGNTIYAQKFQGRVTMTRDTSTNTVYMDLTSLRSEDTAVYYCARTGDRAFDVWGQGTMVTVSS
VL: QSVLTQPPSVSAAPGQKVTISCSGSSSNIGNNYVSWYQQLPGTAPKLLIYDNNKRPSGIPDRFSGSKSGTSATLGITGLQTGDEADYYCGTWDSSLGAGVFGGGTKLTVL
PV neutralisation IC50 [2]: 3.3 nM | PV neutralization % (Ab 1 ug/mL) [2]: 41%

B7: YANG-2110 (antibody, V domains shown)
VH: EVQLVESGGGLIQPGGSLRLSCAASGFIVSRNYMSWVRQAPGKGLDWVSVIYSGGSTYYADSVKGRFTISRDNSKNTLYLQMNSLRAEDTAVYYCARSIAVAGEGLDSWGQGTLVTVSS
VL: EIVMTQSPATLSLSPGDRATLSCRASQSVSNIFISWYQQKPGQAPRLLIYGASIRATDIPARFSGSGSGTDFTLTISSLQPEDFAIYFCQQDYNLPLTFGGGTKVEIK
PV neutralization % (Ab 1 ug/mL) [2]: 99.9%

B8: YANG-1102 (antibody, V domains shown)
VH: QVQLQESGPGLVKPSGTLSLTCAVSGGSISTTNWWSWVRQSPGRGLEWIGEIFHIGYTNYNPSLKSRVTISVDKSKNQFSLKLNSVTVADTAVYYCARRVVMDTAMAHFDCWGQGTLVTVSS
VL: QSVLTQPPSVSGAPGQRVTISCTGSSSNIGAGYDVHWYQHLPGTAPKLLIYININRPSGVPDRFSGSKSGTSASLVIAGLQAEDGADYYCQSYDSSLSGWVFGGGTRLTVL
PV neutralisation IC50 [1]: 0.84 nM | PV neutralization % (Ab 1 ug/mL) [1]: 86.9%

B9: YANG-2202 (antibody, V domains shown)
VH: EVQLVESGGGLVQPGGSLRLSCAASGFTFSSFAMSWVRQAPGKGLEWVAAFSGRGAITHYTDSVKGRFTISRDNSKNTLYLQMNSLRAEDTAVYYCATYNWNPYYFDFWGQGTLVTVSS
VL: DIQMTQSPSSVSASIGDRVTITCRASQDINIWLAWYQQKPGKAPNLLIFDTSNLQSGVPSRFSGSGSGSDFTLTISSLQPEDFATYYCQQGNSFPRTFGQGTRLEIK
PV neutralization % (Ab 1 ug/mL) [2]: 37.5%

B10: YANG-2111 (antibody, V domains shown)
VH: GVQLVESGGGLVQPGRSLRLSCAASGFTFDDYALHWVRQVPGKGLEWVSSISWNSDDLGYADSVEGRFTISRDNAKNSLYLQMSSLRTEDTALYYCVKDTRAHYDILAGYRGLDSWGQGTLVTVSS
VL: DIVMTQSPLSLPVTPGEPASISCRSTQSLLHSNGYNFLDWYLQKPGQSPQLLIYLGSNRASGVPDRFSGSGSGTDFSLKISRVEAEDIGIYYCIQGLQTPITFGQGTRLEIK
PV neutralisation IC50 [2]: 1.33 nM | PV neutralization % (Ab 1 ug/mL) [2]: 86.8%

B11: YANG-2112 (antibody, V domains shown)
VH: QVQLVQSGAEVKKPGASVKVSCKVSGFTLTHLSIHWVRQAPGRGLEWMGGFDPVDGQTVYAQNFQGRVTMTEDTSTDTANMDLNNLKSEDTAVYYCATGVVVPAAPYYYSSGMDVWGQGTTVTVSS
VL: QSVLTQPPSTSGTPGQRVTISCSGSSSNIAKNYVYWYQQLPGTAPKLLIYRTNQRPSGVPDRFSGSRSGTSASLAISGLRSEDEATYYCATWDDTLSVIFGGGTNLTVL
PV neutralisation IC50 [2]: 0.65 nM | PV neutralization % (Ab 1 ug/mL) [2]: 88.6%

B12: YANG-2109 (antibody, V domains shown)
VH: QVQLVQSGAEVKKPGSSVKVSCKASGGTFSGYTISWIRQAPGQGLEWMGGIIPSFGSLNYGQKFQDRVSITTDELKSTVYMELSSLNSEDTAIYYCTRESITSGYYYGMAVWGQGTTVTVSS
VL: DIQMTQSPSSLSASVGDRVTITCRASQGIRDDLGWFQQKPGKAPKRLISAASSLQSGVPSRFSGSGSGTEFTLTISSLQPEDFATYYCLQHNSYPLTFGGGTKVEIR
PV neutralisation IC50 [2]: 0.5 nM | PV neutralization % (Ab 1 ug/mL) [2]: 95%

B13: YANG-2108 (antibody, V domains shown)
VH: QVQLQESGPGQVKPSGTLSLTCAVSGGSIRSSNWWIWVRQPPGKGLEWIGEIYHGGNTNYSPSLKSRVSISVDKSKNHFSLNLTSVTAADTAVYYCARALYDVGGVFDIWGQGTMVTVSS
VL: QSALTQPASVSGSPGQSITISCTGSSSDVGGYNYVSWYQQHPGKAPKLMIYDVSERPSGVSNRFSGSKSGNTASLTISGLQAEDEGDYYCCSYAANSNVVFGGGTKLSVL
PV neutralisation IC50 [2]: 0.27 nM | PV neutralization % (Ab 1 ug/mL) [2]: 81.8%

B14: YANG-1101 (antibody, V domains shown)
VH: QLQLQESGPGLVKPSETLSLTCTVSGGSISSSSYYWGWIRQPPGKGLEWIGSIYYSGSIYYNPSLKSRVTISVDTSKNQFSLKLSSVTAADTAVYYCASWFGEFLKADAFDIWGQGTMVTVSS
VL: QSALTQPASVSGSPGQSITISCTGTSSDVGGYSYVSWYQQHPGKAPKLMIYDVSKRPSGVSNRFSGSKSGNTASLTISGLQAEDEADYYCCSYAGGSTFVVFGGGTKLTVL
PV neutralization % (Ab 1 ug/mL) [1]: 98%

B15: YANG-2201 (antibody, V domains shown)
VH: QEQLVESGGGVVQPGMSLRLSCAASGFTFSNYGMHWVRQSPGKGLEWVTFISYDGNNEYYVDSVKGRFTISRDNSKNTLFLQMNSLRAEDAAVYYCAKDRALNLYYFDSWGPGTLVTVSS
VL: DIVMTQPPLSLPVTPGEPASISCRSSQSLLHNNAYNHLNWYLQKPGQSPQFLIYLGSNRASGVPDRFSGSGSGTDFTLKISRVEAEDVGVYYCMQSLQIPITFGQGTRLEIK
PV neutralization % (Ab 1 ug/mL) [2]: 35.2%
